Assay results reported in patent publication US20160279215A1, “NOVEL PEPTIDES AND COMBINATION OF PEPTIDES FOR USE IN IMMUNOTHERAPY AGAINST VARIOUS TUMORS” (immatics biotechnologies GmbH, priority 2015, published 2016).

target: T1, HLA-A*02:01 (Homo sapiens, UniProt P04439, D140Y/D185E/D98H/E176V/E277Q/G131W/G231S/I119V/I121R/I166T/I218V/L300P/L318F/N151K/N90K/P208A/P217A/Q86G/Q94H/R138H/R169H/T345S); test: MHC binding assay: UV-ligand exchange with β2m ELISA (peptide exchange yield); details: binding to HLA-A*02:01 evaluated by peptide exchange yield (UV-ligand exchange, β2m ELISA)
T1 construct: made in house
Procedure, shortened: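 Binding capacity is expressed as the yield of UV-mediated ligand exchange, reflecting how well each peptide stabilizes peptide-receptive MHC. Stabilized complexes are read out by anti-β2m HRP ELISA (450 nm) after streptavidin capture, with refolded MLA-001 monomer standards for quantitation.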

Q: For “138 (GIINKLVTV; listed as Homo sapiens) [compound 138]”, which Peptide exchange is on record?
A: ++ (≧20% = ++)

Q: For “53 (AQHLSTLLL; listed as Homo sapiens) [compound 53]”, which Peptide exchange is on record?
A: + (≧10% = +)

Q: “184 (ALDSTIAHL; listed as Homo sapiens) [compound 184]” was tested. Which Peptide exchange did it give?
A: ++ (≧20% = ++)

Q: How did the Peptide exchange turn out when “49 (KLIGNIHGNEV; listed as Homo sapiens) [compound 49]” was run?
A: ++ (≧20% = ++)

Q: Which Peptide exchange does the source give for “224 (LLFDWSGTGRADA; listed as Homo sapiens) [compound 224]” here?
A: +++ (≧50 = +++)

Q: How did the Peptide exchange turn out when “74 (GLAFLPASV; listed as Homo sapiens) [compound 74]” was run?
A: ++ (≧20% = ++)

Q: “103 (YLADTVQKL; listed as Homo sapiens) [compound 103]” was tested. Which Peptide exchange did it give?
A: ++ (≧20% = ++)

Q: With “112 (ILAQDVAQL; listed as Homo sapiens) [compound 112]” as the substance, how does the Peptide exchange read?
A: +++ (≧50 = +++)

Q: With “176 (VQSGLRILL; listed as Homo sapiens) [compound 176]” as the substance, how does the Peptide exchange read?
A: ++ (≧20% = ++)

Q: With “132 (ALLNNVIEV; listed as Homo sapiens) [compound 132]” as the substance, how does the Peptide exchange read?
A: +++ (≧50 = +++)

Q: With “55 (HLFDKIIKI; listed as Homo sapiens) [compound 55]” as the substance, how does the Peptide exchange read?
A: +++ (≧50 = +++)

Q: Which Peptide exchange does the source give for “237 (ALLEQTGDMSL; listed as Homo sapiens) [compound 237]” here?
A: +++ (≧50 = +++)

Q: Which Peptide exchange does the source give for “57 (TLYPGRFDYV; listed as Homo sapiens) [compound 57]” here?
A: ++ (≧20% = ++)

Q: With “99 (TLFGIQLTEA; listed as Homo sapiens) [compound 99]” as the substance, how does the Peptide exchange read?
A: +++ (≧50 = +++)

Q: “119 (SLIEESEEL; listed as Homo sapiens) [compound 119]” was tested. Which Peptide exchange did it give?
A: ++ (≧20% = ++)

Q: “94 (YLDEVAFML; listed as Homo sapiens) [compound 94]” was tested. Which Peptide exchange did it give?
A: +++ (≧50 = +++)

Q: “223 (ALHPVQFYL; listed as Homo sapiens) [compound 223]” was tested. Which Peptide exchange did it give?
A: +++ (≧50 = +++)

Q: How did the Peptide exchange turn out when “151 (DISKRIQSL; listed as Homo sapiens) [compound 151]” was run?
A: ++ (≧20% = ++)

Q: Which Peptide exchange does the source give for “164 (MLIIRVPSV; listed as Homo sapiens) [compound 164]” here?
A: +++ (≧50 = +++)

Q: “179 (TLGEIIKGV; listed as Homo sapiens) [compound 179]” was tested. Which Peptide exchange did it give?
A: +++ (≧50 = +++)

Q: For “76 (FTAEFLEKV; listed as Homo sapiens) [compound 76]”, which Peptide exchange is on record?
A: +++ (≧50 = +++)

Q: “33 (TLDRNSLYV; listed as Homo sapiens) [compound 33]” was tested. Which Peptide exchange did it give?
A: ++ (≧20% = ++)

Q: Which Peptide exchange does the source give for “191 (AAIEIFEKV; listed as Homo sapiens) [compound 191]” here?
A: +++ (≧50 = +++)

Q: “198 (ILTNKVVSV; listed as Homo sapiens) [compound 198]” was tested. Which Peptide exchange did it give?
A: ++ (≧20% = ++)

Q: “131 (SLYPHFTLL; listed as Homo sapiens) [compound 131]” was tested. Which Peptide exchange did it give?
A: +++ (≧50 = +++)

Q: With “204 (SEWGSPHAAVP; listed as Homo sapiens) [compound 204]” as the substance, how does the Peptide exchange read?
A: +++ (≧50 = +++)

Q: How did the Peptide exchange turn out when “64 (SLYAGSNNQV; listed as Homo sapiens) [compound 64]” was run?
A: ++ (≧20% = ++)

Q: “79 (TVLEEIGNRV; listed as Homo sapiens) [compound 79]” was tested. Which Peptide exchange did it give?
A: ++ (≧20% = ++)

Q: “175 (SLLDLVQSL; listed as Homo sapiens) [compound 175]” was tested. Which Peptide exchange did it give?
A: +++ (≧50 = +++)

Q: With “279 (VLMDEGAVLTL; listed as Homo sapiens) [compound 279]” as the substance, how does the Peptide exchange read?
A: ++ (≧20% = ++)

Q: “213 (ILAVDGVLSV; listed as Homo sapiens) [compound 213]” was tested. Which Peptide exchange did it give?
A: +++ (≧50 = +++)

Q: “68 (QLMNLIRSV; listed as Homo sapiens) [compound 68]” was tested. Which Peptide exchange did it give?
A: +++ (≧50 = +++)

Q: With “206 (GLDAFRIFL; listed as Homo sapiens) [compound 206]” as the substance, how does the Peptide exchange read?
A: ++++ (≧75% = ++++)

Q: How did the Peptide exchange turn out when “75 (ALLDGALQL; listed as Homo sapiens) [compound 75]” was run?
A: +++ (≧50 = +++)

Q: “195 (VIIQNLPAL; listed as Homo sapiens) [compound 195]” was tested. Which Peptide exchange did it give?
A: +++ (≧50 = +++)

Q: With “256 (FLNDIFERI; listed as Homo sapiens) [compound 256]” as the substance, how does the Peptide exchange read?
A: +++ (≧50 = +++)

Q: How did the Peptide exchange turn out when “88 (LLLPLELSLA; listed as Homo sapiens) [compound 88]” was run?
A: +++ (≧50 = +++)

Q: How did the Peptide exchange turn out when “67 (FLIENLLAA; listed as Homo sapiens) [compound 67]” was run?
A: +++ (≧50 = +++)

Q: For “10 (QLIEKNWLL; listed as Homo sapiens) [compound 10]”, which Peptide exchange is on record?
A: +++ (≧50 = +++)

Q: For “207 (KLFETVEEL; listed as Homo sapiens) [compound 207]”, which Peptide exchange is on record?
A: +++ (≧50 = +++)

Q: For “122 (SIIDTELKV; listed as Homo sapiens) [compound 122]”, which Peptide exchange is on record?
A: +++ (≧50 = +++)

Q: For “23 (ALLSPLSLA; listed as Homo sapiens) [compound 23]”, which Peptide exchange is on record?
A: +++ (≧50 = +++)

Q: “145 (ALEEKLENV; listed as Homo sapiens) [compound 145]” was tested. Which Peptide exchange did it give?
A: +++ (≧50 = +++)

Q: “148 (YLILSSHQL; listed as Homo sapiens) [compound 148]” was tested. Which Peptide exchange did it give?
A: +++ (≧50 = +++)

Q: “225 (FLPQPVPLSV; listed as Homo sapiens) [compound 225]” was tested. Which Peptide exchange did it give?
A: +++ (≧50 = +++)

Q: How did the Peptide exchange turn out when “52 (TIGIPFPNV; listed as Homo sapiens) [compound 52]” was run?
A: ++ (≧20% = ++)

Q: “71 (HMSGKLTNV; listed as Homo sapiens) [compound 71]” was tested. Which Peptide exchange did it give?
A: ++ (≧20% = ++)

Q: How did the Peptide exchange turn out when “143 (MLWESIMRV; listed as Homo sapiens) [compound 143]” was run?
A: +++ (≧50 = +++)

Q: “41 (IVTEIISEI; listed as Homo sapiens) [compound 41]” was tested. Which Peptide exchange did it give?
A: +++ (≧50 = +++)

Q: With “199 (SVADLAHVL; listed as Homo sapiens) [compound 199]” as the substance, how does the Peptide exchange read?
A: ++ (≧20% = ++)

Q: How did the Peptide exchange turn out when “126 (QLREAFEQL; listed as Homo sapiens) [compound 126]” was run?
A: +++ (≧50 = +++)

Q: Which Peptide exchange does the source give for “161 (NLLDENVCL; listed as Homo sapiens) [compound 161]” here?
A: ++++ (≧75% = ++++)

Q: How did the Peptide exchange turn out when “69 (LKVLKADVVL; listed as Homo sapiens) [compound 69]” was run?
A: ++ (≧20% = ++)

Q: For “259 (GPGIFPPPPPQP; listed as Homo sapiens) [compound 259]”, which Peptide exchange is on record?
A: + (≧10% = +)

Q: With “28 (IKVTDPQLLEL; listed as Homo sapiens) [compound 28]” as the substance, how does the Peptide exchange read?
A: ++ (≧20% = ++)

Q: Which Peptide exchange does the source give for “169 (ALADLSVAV; listed as Homo sapiens) [compound 169]” here?
A: +++ (≧50 = +++)

Q: “211 (LLTTVLINA; listed as Homo sapiens) [compound 211]” was tested. Which Peptide exchange did it give?
A: +++ (≧50 = +++)

Q: For “149 (NMADGQLHQV; listed as Homo sapiens) [compound 149]”, which Peptide exchange is on record?
A: ++ (≧20% = ++)

Q: With “147 (GLLSALENV; listed as Homo sapiens) [compound 147]” as the substance, how does the Peptide exchange read?
A: +++ (≧50 = +++)

Q: Which Peptide exchange does the source give for “221 (IMLNSVEEI; listed as Homo sapiens) [compound 221]” here?
A: ++ (≧20% = ++)

Q: How did the Peptide exchange turn out when “111 (AQLEGKLVSI; listed as Homo sapiens) [compound 111]” was run?
A: +++ (≧50 = +++)

Q: With “105 (AMLASQTEA; listed as Homo sapiens) [compound 105]” as the substance, how does the Peptide exchange read?
A: ++ (≧20% = ++)

Q: “115 (ILHGEVNKV; listed as Homo sapiens) [compound 115]” was tested. Which Peptide exchange did it give?
A: ++ (≧20% = ++)

Q: How did the Peptide exchange turn out when “249 (YLYQILQGI; listed as Homo sapiens) [compound 249]” was run?
A: +++ (≧50 = +++)

Q: “40 (KIWEELSVLEV; listed as Homo sapiens) [compound 40]” was tested. Which Peptide exchange did it give?
A: +++ (≧50 = +++)

Q: For “230 (KLLNMIFSI; listed as Homo sapiens) [compound 230]”, which Peptide exchange is on record?
A: +++ (≧50 = +++)

Q: Which Peptide exchange does the source give for “280 (HLWGHALFL; listed as Homo sapiens) [compound 280]” here?
A: +++ (≧50 = +++)

Q: How did the Peptide exchange turn out when “282 (SLYALHVKA; listed as Homo sapiens) [compound 282]” was run?
A: ++ (≧20% = ++)

Q: “62 (SLVENIHVL; listed as Homo sapiens) [compound 62]” was tested. Which Peptide exchange did it give?
A: +++ (≧50 = +++)

Q: How did the Peptide exchange turn out when “91 (LLPSIFLMV; listed as Homo sapiens) [compound 91]” was run?
A: ++ (≧20% = ++)

Q: “150 (VLLDMVHSL; listed as Homo sapiens) [compound 150]” was tested. Which Peptide exchange did it give?
A: +++ (≧50 = +++)

Q: “114 (LLFPSDVQTL; listed as Homo sapiens) [compound 114]” was tested. Which Peptide exchange did it give?
A: ++ (≧20% = ++)

Q: How did the Peptide exchange turn out when “124 (ALLLRLFTI; listed as Homo sapiens) [compound 124]” was run?
A: ++ (≧20% = ++)

Q: Which Peptide exchange does the source give for “80 (VLTGQVHEL; listed as Homo sapiens) [compound 80]” here?
A: +++ (≧50 = +++)

Q: Which Peptide exchange does the source give for “133 (FLDGRPLTL; listed as Homo sapiens) [compound 133]” here?
A: ++ (≧20% = ++)

Q: For “24 (KVWSDVTPL; listed as Homo sapiens) [compound 24]”, which Peptide exchange is on record?
A: +++ (≧50 = +++)

Q: Which Peptide exchange does the source give for “110 (QIQGQVSEV; listed as Homo sapiens) [compound 110]” here?
A: ++ (≧20% = ++)

Q: “178 (SLVSWQLLL; listed as Homo sapiens) [compound 178]” was tested. Which Peptide exchange did it give?
A: ++++ (≧75% = ++++)

Q: With “220 (ALSELERVL; listed as Homo sapiens) [compound 220]” as the substance, how does the Peptide exchange read?
A: +++ (≧50 = +++)

Q: For “108 (FIANLPPELKA; listed as Homo sapiens) [compound 108]”, which Peptide exchange is on record?
A: +++ (≧50 = +++)
